Results taken from patent US20190062453A1 (Hoffmann-La Roche, published 2019).
Substitutions are numbered along the chain they refer to.

What was measured:
[1] = target: T1, Murine FAP ectodomain + poly-lys-tag + his6-tag (murine, UniProt P97321 27-761); experiment: SPR (Biacore), bispecific antibody bound to immobilised human DR5-Fc, recombinant murine FAP as second analyte (simultaneous binding)
T1 construct: also called recombinant soluble murine FAP

[2] = target: T2, Human FAP ectodomain + poly-lys-tag + his6-tag (human, UniProt Q12884 27-760); experiment: SPR (Biacore), bispecific antibody bound to immobilised human DR5-Fc, recombinant human FAP as second analyte (simultaneous binding)
T2 construct: also called recombinant soluble human FAP; hFAP

[3] = target: T3, human DR5 ECD-Avi-his (human, UniProt O14763 56-207); experiment: SPR (BIAcore 3000), antibody captured by anti-human Fc, monomeric DR5 injected
T3 construct: also called recombinant human DR5 (monomeric His-Avi fusion protein); monomeric human DR5

[4] = target: T4, human DR5 (recombinant, fusion format not stated for the assay) (human, UniProt O14763 56-207); experiment: binding to human DR5 after stress test, pH 6.0, 2 weeks 40° C., against non-stressed initial material (defined 100%)
T4 construct: all antigen constructs carry ECD aa 56-207; also called hu DR5; huDR5

[5] = target: T4, human DR5 (recombinant, fusion format …); experiment: binding to human DR5 after stress test, pH 7.4, 2 weeks 40° C., against non-stressed initial material (defined 100%)

T1 sequence (P97321 other isoform, or with tags, fused parts or gaps): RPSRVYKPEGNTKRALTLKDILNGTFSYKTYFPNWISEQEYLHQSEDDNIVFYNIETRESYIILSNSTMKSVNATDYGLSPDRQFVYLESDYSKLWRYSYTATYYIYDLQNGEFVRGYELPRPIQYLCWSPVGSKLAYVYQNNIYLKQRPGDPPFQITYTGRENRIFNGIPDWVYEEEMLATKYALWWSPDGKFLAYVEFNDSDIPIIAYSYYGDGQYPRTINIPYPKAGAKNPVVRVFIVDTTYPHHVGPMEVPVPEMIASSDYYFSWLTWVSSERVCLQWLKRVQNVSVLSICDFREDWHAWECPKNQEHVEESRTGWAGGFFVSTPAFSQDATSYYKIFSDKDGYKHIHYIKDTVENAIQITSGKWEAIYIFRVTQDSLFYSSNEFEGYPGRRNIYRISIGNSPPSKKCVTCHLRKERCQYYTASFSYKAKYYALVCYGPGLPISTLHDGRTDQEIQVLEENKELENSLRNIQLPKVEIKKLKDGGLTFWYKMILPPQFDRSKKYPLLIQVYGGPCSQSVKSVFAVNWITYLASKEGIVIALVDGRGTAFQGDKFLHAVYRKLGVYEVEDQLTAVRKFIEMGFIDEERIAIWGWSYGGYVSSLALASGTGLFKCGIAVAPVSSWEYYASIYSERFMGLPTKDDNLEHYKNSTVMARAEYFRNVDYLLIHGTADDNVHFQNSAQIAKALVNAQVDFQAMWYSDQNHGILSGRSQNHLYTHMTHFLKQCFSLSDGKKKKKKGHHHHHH

B1: 18F11_28H1 (bispecific antibody, human IgG1, kappa)
VH (DR5)-Fc part-VH (FAP)-CL chain: not shown
VL (DR5)-kappa light chain: EIVLTQSPGTLSLSPGERATLSCRASQSVSSSYLAWYQQKPGQAPRLLIYGASSRATGIPDRFSGSGSGTDFTLTISRLEPEDFAVYYCQQGQLPPITFGQGTKVEIKRTVAAPSVFIFPPSDEQLKSGTASVVCLLNNFYPREAKVQWKVDNALQSGNSQESVTEQDSKDSTYSLSSTLTLSKADYEKHKVYACEVTHQGLSSPVTKSFNRGEC
VLCH1 (FAP) chain: EIVLTQSPGTLSLSPGERATLSCRASQSVSRSYLAWYQQKPGQAPRLLIIGASTRATGIPDRFSGSGSGTDFTLTISRLEPEDFAVYYCQQGQVIPPTFGQGTKVEIKSSASTKGPSVFPLAPSSKSTSGGTAALGCLVKDYFPEPVTVSWNSGALTSGVHTFPAVLQSSGLYSLSSVVTVPSSSLGTQTYICNVNHKPSNTKVDKKVEPKSCD
notes: Printed as '18F11' on the sheet
binding result [1]: binds | binding result [2]: binds

B2: DR5TAA-0032 (bispecific antibody, human IgG1, kappa)
HC (DR5-crossed FAP): not shown
LC (DR5): AQVLTQTPSPVSAAVGGTVTINCQASQSVYNNRLAWYQQKPGQPPKLLIYLASTLASGVPSRFKGSGSGTQFTLTISDLQCDDAATYYCAGGYSGNINAFGGGTEVVVKRTVAAPSVFIFPPSDEQLKSGTASVVCLLNNFYPREAKVQWKVDNALQSGNSQESVTEQDSKDSTYSLSSTLTLSKADYEKHKVYACEVTHQGLSSPVTKSFNRGEC
Crossed LC (FAP): B1 VLCH1 (FAP) chain
notes: also called 039-28H1
binding result [1]: binds | binding result [2]: binds

B3: DR5TAA-0036 (bispecific antibody, human IgG1, kappa)
HC (DR5-crossed FAP): not shown
LC (DR5): ALVMTQTPSSVSAAVGGTVTINCQASQNIYSNLAWFQQKPGQPPKLLIYETSKLASGVPSRFSGSGSGTEFTLTISDLECDDAATYYCQSSWHSISTDCAFGGGTEVVVKRTVAAPSVFIFPPSDEQLKSGTASVVCLLNNFYPREAKVQWKVDNALQSGNSQESVTEQDSKDSTYSLSSTLTLSKADYEKHKVYACEVTHQGLSSPVTKSFNRGEC
Crossed LC (FAP): B1 VLCH1 (FAP) chain
binding result [1]: binds | binding result [2]: binds

B4: DR5TAA-0034 (bispecific antibody, human IgG1, kappa)
HC (DR5-crossed FAP): not shown
LC (DR5): ALVMTQTPSSTSEPVGGTVTIKCQASQSIGSSLSWYQQTPGQPPKLLIYTASSLASSVPKRFSGSRSGTQFTLTISGVQCADAATYYCLGIDDVRRDDGFAFGGGTEVVVKRTVAAPSVFIFPPSDEQLKSGTASVVCLLNNFYPREAKVQWKVDNALQSGNSQESVTEQDSKDSTYSLSSTLTLSKADYEKHKVYACEVTHQGLSSPVTKSFNRGEC
Crossed LC (FAP): B1 VLCH1 (FAP) chain
notes: also called 298-28H1
binding result [1]: binds | binding result [2]: binds

B5: DR5TAA-0038 (bispecific antibody, human IgG1, kappa)
VH (DR5)-Fc part-VH (FAP)-CL chain: not shown
VL (DR5)-kappa light chain: B1 VL (DR5)-kappa light chain with Q93S, L94Q
VLCH1 (FAP) chain: B1 VLCH1 (FAP) chain
binding result [1]: binds | binding result [2]: binds

B6: DR5TAA-0037 (bispecific antibody, human IgG1, kappa)
VH (DR5)-Fc part-VH (FAP)-CL chain: not shown
VL (DR5)-kappa light chain: B1 VL (DR5)-kappa light chain with Q93S, L94N, P95Q, I97V
VLCH1 (FAP) chain: B1 VLCH1 (FAP) chain
binding result [1]: binds | binding result [2]: binds

B7: DR5TAA-0039 (bispecific antibody, human IgG1, kappa)
VH (DR5)-Fc part-VH (FAP)-CL chain: not shown
VL (DR5)-kappa light chain: B1 VL (DR5)-kappa light chain with Q93E, L94S, I97P
VLCH1 (FAP) chain: B1 VLCH1 (FAP) chain
notes: also called DR5 (20F2)-28H1 VHCL 2 + 2
binding result [1]: binds | binding result [2]: binds

B8: DR5TAA-0052 (antibody, human IgG1, kappa, L234A L235A, V domains shown)
VH: QSVEESGGRLVTPGTPLTLTCTVSGFSISRYAMIWVRQAPGEGLEYIGFITSDSSAYYASWAKGRFTISKTSTTVDLKMTSPTTEDTATYFCARYTYSDGTDLWGPGTLVTVSS
VL: DIVMTQTPASVSEPVGGTVTIKCQASQSISTYLSWYQQKPGQPPKRLIYKASTLASGVPSRFKGSGSGTDFTLTIRDLESADAATYYCQPNSGIATYGAAFGGGTEVVVKR
notes: rabbit variable, human constant regions; also called chimeric form of DR5TAA-0011; chimeric variant
Kd [3]: 7 nM | koff [3]: 0.0024 s⁻¹ | kon [3]: 350000 M⁻¹ s⁻¹

B9: DR5TAA-0067 (antibody, human IgG1, kappa, L234A L235A, V domains shown)
VH: EVQLVETGGGLIQPGGSLRLSCAASGFTVSRYAMIWVRQAPGKGLEYIGFITSDGSTYYADSAKGRFTISRDNSKNTLYLQMNSLRAEDTAVYYCARYTYSDGTDLWGRGTLVTVSS
VL: DIQMTQSPSTLSASVGDRVTITCRASQSISTYLSWYQQKPGKAPKRLIYKASSLASGVPSRFSGSGSGTEFTLTISSLQPDDAATYYCQPNSGIATYGAAFGGGTKVEIKR
notes: humanized variant of DR5TAA-0011; also called VH7/VL15
Relative active concentration as compared to the initial state [4]: 107% | Kd [3]: 20 nM | koff [3]: 0.0052 s⁻¹ | kon [3]: 260000 M⁻¹ s⁻¹ | Relative active concentration as compared to the initial state [5]: 107%

B10: DR5TAA-0074 (antibody, human IgG1, kappa, L234A L235A, V domains shown)
VH: B9 VH
VL: B9 VL with T10S, K42Q, A43P, S53T, E70D, D81E, A83F
notes: humanized variant of DR5TAA-0011; also called VH7/VL10
Relative active concentration as compared to the initial state [4]: 103% | Kd [3]: 21 nM | koff [3]: 0.0056 s⁻¹ | kon [3]: 270000 M⁻¹ s⁻¹ | Relative active concentration as compared to the initial state [5]: 100%

B11: DR5TAA-0073 (antibody, human IgG1, kappa, L234A L235A, V domains shown)
VH: QVQLVESGGGLVQPGGSLRLSCSASGFSISRYAMIWVRQAPGKGLEYVGFITSDSSAYYASWAKGRFTISRDNSKNTLYLQMNSLRAEDTAVYYCARYTYSDGTDLWGQGTLVTVSS
VL: B9 VL with T10S, S53T, E70D, D81E
notes: humanized variant of DR5TAA-0011; also called VH17/VL3
Relative active concentration as compared to the initial state [4]: 104% | Relative active concentration as compared to the initial state [5]: 101%

B12: DR5TAA-0066 (antibody, human IgG1, kappa, L234A L235A, V domains shown)
VH: B9 VH
VL: B9 VL with T10S, S53T, E70D, D81E
notes: humanized variant of DR5TAA-0011; also called VH7/VL3
Relative active concentration as compared to the initial state [4]: 102% | Relative active concentration as compared to the initial state [5]: 100%

B13: DR5TAA-0068 (antibody, human IgG1, kappa, L234A L235A, V domains shown)
VH: B11 VH
VL: B9 VL with T10S, K42Q, A43P, S53T, E70D, D81E, A83F
notes: humanized variant of DR5TAA-0011; also called VH17/VL10
Relative active concentration as compared to the initial state [4]: 103% | Relative active concentration as compared to the initial state [5]: 101%

B14: DR5TAA-0075 (antibody, human IgG1, kappa, L234A L235A, V domains shown)
VH: B9 VH
VL: B9 VL with T10S, R24Q, K42Q, A43P, S53T, E70D, D81E, A83F
notes: humanized variant of DR5TAA-0011; also called VH7/VL11
Relative active concentration as compared to the initial state [4]: 102% | Kd [3]: 17 nM | koff [3]: 0.0056 s⁻¹ | kon [3]: 320000 M⁻¹ s⁻¹ | Relative active concentration as compared to the initial state [5]: 99%

B15: DR5TAA-0071 (antibody, human IgG1, kappa, L234A L235A)
heavy: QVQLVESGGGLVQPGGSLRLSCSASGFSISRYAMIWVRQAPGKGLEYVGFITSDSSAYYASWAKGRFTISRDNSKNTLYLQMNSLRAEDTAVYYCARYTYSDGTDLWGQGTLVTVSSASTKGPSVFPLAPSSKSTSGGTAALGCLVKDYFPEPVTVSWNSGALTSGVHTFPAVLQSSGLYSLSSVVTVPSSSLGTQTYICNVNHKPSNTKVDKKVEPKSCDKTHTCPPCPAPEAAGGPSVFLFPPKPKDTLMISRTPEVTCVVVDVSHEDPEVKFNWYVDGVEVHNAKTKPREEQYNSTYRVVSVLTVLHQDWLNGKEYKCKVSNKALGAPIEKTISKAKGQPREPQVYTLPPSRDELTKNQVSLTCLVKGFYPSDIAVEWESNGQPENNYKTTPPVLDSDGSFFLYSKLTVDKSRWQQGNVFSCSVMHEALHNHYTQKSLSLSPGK
light: ADIQMTQSPSTLSASVGDRVTITCRASQSISTYLSWYQQKPGKAPKRLIYKASSLASGVPSRFSGSGSGTEFTLTISSLQPDDAATYYCQPNSGIATYGAAFGGGTKVEIKRTVAAPSVFIFPPSDEQLKSGTASVVCLLNNFYPREAKVQWKVDNALQSGNSQESVTEQDSKDSTYSLSSTLTLSKADYEKHKVYACEVTHQGLSSPVTKSFNRGEC
notes: humanized variant of DR5TAA-0011; also called VH17/VL15
Relative active concentration as compared to the initial state [4]: 103% | Kd [3]: 15 nM | koff [3]: 0.0046 s⁻¹ | kon [3]: 300000 M⁻¹ s⁻¹ | Relative active concentration as compared to the initial state [5]: 98%

B16: DR5TAA-0072 (antibody, human IgG1, kappa, L234A L235A)
heavy: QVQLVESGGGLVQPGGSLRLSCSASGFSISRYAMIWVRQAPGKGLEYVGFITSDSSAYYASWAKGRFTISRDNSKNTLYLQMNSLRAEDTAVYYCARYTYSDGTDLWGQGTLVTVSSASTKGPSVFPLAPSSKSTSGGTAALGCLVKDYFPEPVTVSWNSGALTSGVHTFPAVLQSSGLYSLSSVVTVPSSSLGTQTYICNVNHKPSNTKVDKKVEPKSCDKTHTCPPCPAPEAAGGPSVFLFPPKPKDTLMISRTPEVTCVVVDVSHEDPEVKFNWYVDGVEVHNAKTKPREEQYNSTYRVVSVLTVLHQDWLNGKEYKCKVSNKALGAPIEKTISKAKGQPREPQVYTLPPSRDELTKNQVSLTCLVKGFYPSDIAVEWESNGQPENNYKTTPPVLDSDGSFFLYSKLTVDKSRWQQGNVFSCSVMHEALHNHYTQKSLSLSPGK
light: DIQMTQSPSTLSASVGDRVTITCRASQSISTYLSWYQQKPGKAPKRLIYKASSLASGVPSRFSGSGSGTEFTLTISSLQPDDAATYYCQPNSGIATYGAAFGGGTKVEIKRTVAAPSVFIFPPSDEQLKSGTASVVCLLNNFYPREAKVQWKVDNALQSGNSQESVTEQDSKDSTYSLSSTLTLSKADYEKHKVYACEVTHQGLSSPVTKSFNRGEC
notes: humanized variant of DR5TAA-0011; also called VH17/VL2
Relative active concentration as compared to the initial state [4]: 105% | Relative active concentration as compared to the initial state [5]: 101%
